Data reported in patent US20230312709A1 (GUANGDONG FEIPENG PHARMACEUTICAL, published 2023).
Residue numbers refer to the chain shown, from its start.

B1: 7A11H32 (antibody, V domains shown)
VH: QVQLVQSGAEVKKPGSSVKVSCKASGSSFTSNWMNWVRQAPGQGLEWIGMIHPSDSETRLNQKFKDRVTITADKSTSTAYMELSSLRSEDTAVYYCARGTTVVDAFAYWGQGTTVTVSS
VL: DIQMTQSPSSLSASVGDRVTMTCKSSQSLLNSRTRKNYLAWYQQKPGKAPKLLIYWASTRESGVPSRFSGSGSGTDFTLTISSLQPEDFATYYCKQSYNLRTFGGGTKLEIK
notes: also called CD47 antibody
B2: 7A11H35 (antibody, V domains shown)
VH: B1 VH
VL: EIVMTQSPPTLSLSPGERVTMSCKSSQSLLNSRTRKNYLAWYQQKPGQAPRLLIYWASTRESGIPARFSGSGSGTDFTLTISSLQPEDFAVYYCKQSYNLRTFGGGTKLEIK
notes: also called CD47 antibody
B3: 7A11H11 (antibody, V domains shown)
VH: B1 VH with S7P, S16A, V20L, V68A, I70L, A72V, L86P
VL: DIVMTQSPDSLAVSLGERATMNCKSSQSLLNSRTRKNYLAWYQQKPGQPPKLLIYWASTRESGVPDRFSGSGSGTDFTLTISSLQAEDVAVYYCKQSYNLRTFGGGTKLEIK
notes: also called CD47 antibody
B4: 7A11H14 (antibody, V domains shown)
VH: B1 VH with S7P, S16A, V20L, V68A, I70L, A72V, L86P
VL: B3 VL with S32T
notes: also called CD47 antibody
B5: 7A11H22 (antibody, V domains shown)
VH: B1 VH with S16A, V68A, I70L, A72V
VL: B1 VL
notes: also called CD47 antibody
B6: 7A11H15 (antibody, V domains shown)
VH: B1 VH with S7P, S16A, V20L, V68A, I70L, A72V, L86P
VL: B2 VL
notes: also called CD47 antibody
B7: 7A11H34 (antibody, V domains shown)
VH: B1 VH
VL: B3 VL with S32T
notes: also called CD47 antibody
B8: 7A11H33 (antibody, V domains shown)
VH: B1 VH
VL: B1 VL with S32T
notes: also called CD47 antibody
B9: 7A11H55 (antibody, V domains shown)
VH: B1 VH with S27G, S28T, K65Q, D66G
VL: B2 VL
notes: also called CD47 antibody
B10: 7A11H42 (antibody, V domains shown)
VH: B1 VH with K65Q, D66G
VL: B1 VL
notes: also called CD47 antibody
B11: 7A11H52 (antibody, V domains shown)
VH: B1 VH with S27G, S28T, K65Q, D66G
VL: B1 VL
notes: also called CD47 antibody
B12: 7A11H12 (antibody, V domains shown)
VH: B1 VH with S7P, S16A, V20L, V68A, I70L, A72V, L86P
VL: B1 VL
notes: also called CD47 antibody
B13: Hu5F9-G4 (antibody, V domains shown)
VH: QVQLVQSGAEVKKPGASVKVSCKASGYTFTNYNMHWVRQAPGQRLEWMGTIYPGNDDTSYNQKFKDRVTITADTSASTAYMELSSLRSEDTAVYYCARGGYRAMDYWGQGTLVTVSS
VL: DIVMTQSPLSLPVTPGEPASISCRSSQSIVYSNGNTYLGWYLQKPGQSPQLLIYKVSNRFSGVPDRFSGSGSGTDFTLKISRVEAEDVGVYYCFQGSHVPYTFGQGTKLEIKR

Molecular target: T1, human CD47 on CCRF-CEM cells (human, UniProt Q08722 19-323)
T1 construct: whole, on cells
Assay: flow cytometry on CCRF-CEM cells, MFI curve
Description: The specific steps were as follows.
A cell line CCRF-CEM (Cell Bank of Chinese Academy of Sciences, Shanghai) expressing human CD47 was used, which belongs to human acute lymphoblastic leukemia T lymphocytes. […] Then, the cells were washed at least twice, a PE Goat anti human IgG Fc (1:500× dilution) fluorescent secondary antibody was prepared with a FCM buffer (1×PBS+3% BSA), added to a corresponding 96-well plate according to 100 μL/well, and incubated in a refrigerator at 4° C. for 30 min. The 96-well plate was taken out, and centrifuged at 250 g for 5 min, after a supernatant was carefully removed, the FCM buffer was added at 200 μL/well, and it was centrifuged again at 250 g for 5 min, the supernatant was carefully removed. The cells were washed at least twice and resuspended using 100 μL/well 1×PBS, and analyzed by the flow cytometry, and a concentration-dependent curve was fitted with GraphPad according to the mean fluorescence intensity (MFI) thereof.

| EC50 | Binder |
| --- | --- |
| 0.717 nM | B1 |
| 0.862 nM | B2 |
| 0.822 nM | B3 |
| 0.933 nM | B4 |
| 0.82 nM | B5 |
| 0.723 nM | B6 |
| 1.2 nM | B7 |
| 0.76 nM | B8 |
| 1.21 nM | B9 |
| 0.727 nM | B10 |
| 0.915 nM | B11 |
| 0.716 nM | B12 |

Molecular target: T2, monkey CD47 on CHO-cynoCD47 cells (monkey)
T2 construct: whole, on cells; Cell line named CHO-cynoCD47; the text calls the species 'monkey'
Assay: flow cytometry on CHO-cynoCD47 cells, MFI curve
Description: Then, the cells were washed at least twice, a PE Goat anti human IgG Fc (1:500× dilution) fluorescent secondary antibody was prepared with a FCM buffer (1×PBS+3% BSA), added to a corresponding 96-well plate according to 100 μL/well, and incubated in a refrigerator at 4° C. for 30 min. The 96-well plate was taken out, and centrifuged at 250 g for 5 min, after a supernatant was carefully removed, the FCM buffer was added at 200 μL/well, and it was centrifuged again at 250 g for 5 min, the supernatant was carefully removed. The cells were washed at least twice and resuspended with 1×PBS at 100 μL/well, and analyzed by the flow cytometry, and a concentration-dependent curve was fitted with GraphPad according to MFI thereof.

| EC50 | Binder |
| --- | --- |
| 17.1 nM | B1 |
| 4.38 nM | B2 |
| 8.93 nM | B3 |
| 4.96 nM | B4 |
| 8.55 nM | B5 |
| 7.27 nM | B6 |
| 8.61 nM | B7 |
| 4.85 nM | B8 |
| 4.62 nM | B9 |
| 5 nM | B10 |
| 4.51 nM | B11 |
| 7.35 nM | B12 |
| 5.12 nM | B13 |

Molecular target: T3, hCD47-ECD-HIS recombinant protein (human, UniProt Q08722 19-139, limits assumed)
T3 construct: extracellular domain; also called hCD47 antigen; CD47 antigen
Assay: BLI (ForteBio), antibody on AHC sensor, 100 nM CD47 antigen, 1:1 model
Description: An equilibrium dissociation constant (KD) of the antibody of the present application binding to human CD47 (hCD47) was determined by a biofilm interferometry (ForteBio). […] Kinetic analysis was performed with a 1:1 binding model.

| Kd | koff | kon | Binder |
| --- | --- | --- | --- |
| 0.881 nM |  |  | B2 |
| 0.59 nM |  |  | B3 |
| 0.562 nM |  |  | B4 |
| 0.74 nM |  |  | B5 |
| 0.212 nM | 0.000313 s⁻¹ | 1.48e+06 M⁻¹ s⁻¹ | B6 |
| 0.36 nM |  |  | B8 |
| 0.309 nM |  |  | B10 |
| 0.459 nM |  |  | B12 |

Molecular target: T1, human CD47 on CCRF-CEM cells
Assay: flow cytometry competition on CCRF-CEM cells; blocked ligand hSIRPα-mFC, detected with PE goat anti-mouse IgG Fc

| IC50 (read off the curve) | Binder |
| --- | --- |
| ~2 nM | B1 |
| ~2 nM | B3 |
| ~2 nM | B5 |
| ~2 nM | B10 |
| ~0.9 nM | B12 |

Molecular target: T1, human CD47 on CCRF-CEM cells
Assay: as above
Remark: another data set of the same source

| IC50 (read off the curve) | Binder |
| --- | --- |
| ~2 nM | B6 |
